Paper PMC5850324, “Interactions between the Hepatitis C Virus Nonstructural 2 Protein and Host Adaptor Proteins 1 and 4 Orchestrate Virus Release” (mBio, 2018)

B1: GLuc2-NS2 (hepatitis C virus nonstructural 2 protein, wild type) [hepatitis C virus (J6/JFH genome)] / GLuc1-tagged μ subunit of the AP-1B complex [not stated] (parent)
chain 1: YDASVHGQIGAALLVLITLFTLTPGYKTLLSRFLWWLCYLLTLAEAMVQEWAPPMQVRGGRDGIIWAVAIFCPGVVFDITKWLLAVLGPAYLLKGALTRVPYFVRAHALLRMCTMVRHLAGGRYVQMVLLALGRWTGTYIYDHLTPMSDWAANGLRDLAVAVEPIIFSPMEKKVIVWGAETAACGDILHGLPVSARLGREVLLGPADGYTSKGWSLL
chain 2: MSASAVFILDVKGKPLISRNYKGDVAMSKIEHFMPLLVQREEEGALAPLLSHGQVHFLWIKHSNLYLVATTSKNANASLVYSFLYKTIEVFCEYFKELEEESIRDNFVIVYELLDELMDFGFPQTTDSKILQEYITQQSNKLETGKSRVPPTVTNAVSWRSEGIKYKKNEVFIDVIESVNLLVNANGSVLLSEIVGTIKLKVFLSGMPELRLGLNDRVLFELTGRSKNKSVELEDVKFHQCVRLSRFDNDRTISFIPPDGDFELMSYRLSTQVKPLIWIESVIEKFSHSRVEIMVKAKGQFKKQSVANGVEISVPVPSDADSPRFKTSVGSAKYVPERNVVIWSIKSFPGGKEYLMRAHFGLPSVEKEEVEGRPPIGVKFEIPYFTVSGIQVRYMKIIEKSGYQALPWVRYITQSGDYQLRTS
B2: GLuc2-NS2 (hepatitis C virus nonstructural 2 protein, wild type) [hepatitis C virus (J6/JFH genome)] / GLuc1-tagged μ subunit of the AP-1A complex [not stated] (parent)
chain 1: B1 chain 1
chain 2: MSASAVYVLDLKGKVLICRNYRGDVDMSEVEHFMPILMEKEEEGMLSPILAHGGVRFMWIKHNNLYLVATSKKNACVSLVFSFLYKVVQVFSEYFKELEEESIRDNFVIIYELLDELMDFGYPQTTDSKILQEYITQEGHKLETGAPRPPATVTNAVSWRSEGIKYRKNEVFLDVIESVNLLVSANGNVLRSEIVGSIKMRVFLSGMPELRLGLNDKVLFDNTGRGKSKSVELEDVKFHQCVRLSRFENDRTISFIPPDGEFELMSYRLNTHVKPLIWIESVIEKHSHSRIEYMIKAKSQFKRRSTANNVEIHIPVPNDADSPKFKTTVGSVKWVPENSEIVWSIKSFPGGKEYLMRAHFGLPSVEAEDKEGKPPISVKFEIPYFTTSGIQVRYLKIIEKSGYQALPWVRYITQNGDYQLRTQ

Variants of: B1
Assay: PCA (protein-fragment complementation assay)
Settings: with GLuc1-tagged μ subunit of the AP-1B complex; parent: 1; read off a plot

Q: For chain 1 L202A L203A L216A L217A, which ratio to parent is on record?
A: The ratio to parent was 0.47.

Q: For chain 1 L217A, which ratio to parent is on record?
A: The ratio to parent was 0.76.

Q: chain 1 L203A was tested. Which ratio to parent did it give?
A: The ratio to parent was 0.67.

Q: With chain 1 L202A as the variant, how does the ratio to parent read?
A: The ratio to parent was 0.8.

Q: For chain 1 L202A L217A, which ratio to parent is on record?
A: The ratio to parent was 0.55.

Q: chain 1 D207A was tested. Which ratio to parent did it give?
A: Its ratio to parent is 0.79.

Q: For chain 1 E200A, which ratio to parent is on record?
A: The ratio to parent was 0.97.

Q: For chain 1 L216A, which ratio to parent is on record?
A: Its ratio to parent is 0.77.

Variants of: B2
Assay: PCA (protein-fragment complementation assay)
Settings: with GLuc1-tagged μ subunit of the AP-1A complex; parent: 1; read off a plot

Q: For chain 1 E200A, which ratio to parent is on record?
A: The ratio to parent was 1.

Q: Which ratio to parent does the source give for chain 1 L202A here?
A: The ratio to parent was 0.71.

Q: Which ratio to parent does the source give for chain 1 L216A here?
A: Its ratio to parent is 0.56.

Q: How did the ratio to parent turn out when chain 1 L202A L217A was run?
A: Its ratio to parent is 0.38.

Q: With chain 1 L217A as the variant, how does the ratio to parent read?
A: The ratio to parent was 0.68.

Q: For chain 1 D207A, which ratio to parent is on record?
A: The ratio to parent was 0.74.

Q: Which ratio to parent does the source give for chain 1 L202A L203A L216A L217A here?
A: The ratio to parent was 0.33.

Q: How did the ratio to parent turn out when chain 1 L203A was run?
A: The ratio to parent was 0.67.
